Assay results as given in the supplement of paper PMC9732359.
± gives the uncertainty stated by the source.

Experiment: protein stability index of a GFP-peptide fusion (yeast GPS) (PSI 1-4); higher = more stable; sorted into four equal gates, so the index is relative within each strain
In short: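 Sequencing reads from sorted gates were used to score each peptide. The library consisted of tiled 17-residue yeast protein peptides fused downstream of GFP on a Cherry-expressing plasmid, pooled and carried in yeast. Mid-log cultures in leucine-free medium were split into four equal gates by GFP/Cherry ratio, and each gate's plasmids were PCR-amplified and Illumina-sequenced. The protein stability index adds up, over all gates, the read frequency multiplied by the gate number.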

| Sequence | protein stability index (doa10∆) | protein stability index (pdr5∆) | protein stability index (san1∆) | protein stability index (ubr1∆) |
| --- | --- | --- | --- | --- |
| SASLFKQRKNPRRIAWT [RPL24A] | 2.55 ± 0.11 | 2.9 ± 0.097 | 2.96 ± 0.087 | 3.08 ± 0.059 |
| SASSLVITALKEPPRDR [RPL12A] | 2.83 ± 0.062 | 2.97 ± 0.074 | 2.66 ± 0.071 | 2.22 ± 0.052 |
| SATPNAAAFSQQQNASS [GAL11] | 2.94 ± 0.063 | 3.1 ± 0.054 | 2.89 ± 0.035 | 3.09 ± 0.041 |
| SATSTTEQTKSKNPLSL [YLR335W/NUP2] | 2.95 ± 0.04 | 3.01 ± 0.047 | 2.58 ± 0.055 | 2.96 ± 0.044 |
| SCHGHFGHLKLALPVFH [RPO31] | 1.44 ± 0.054 | 1.4 ± 0.057 | 1.23 ± 0.1 | 1.18 ± 0.035 |
| SDDIAENDNLDNVSKNA [YCG1] | 3.39 ± 0.088 | 3.34 ± 0.14 | 3.25 ± 0.063 | 3.23 ± 0.085 |
| SDEEESVLDEQEQYQTN [SNU114] | 3.11 ± 0.14 | 3.25 ± 0.079 | 3.25 ± 0.11 | 3.31 ± 0.069 |
| SDIESANNQEYDLNFKL [SMC1] | 3.12 ± 0.29 | – | – | – |
| SDIVLDKKVTLITSEMF [SIN4] | 1.69 ± 0.085 | 1.92 ± 0.13 | 1.79 ± 0.11 | 2.14 ± 0.073 |
| SDKDATTDGKNDDEEEE [RPN1] | – | 3.33 ± 0.26 | – | – |
| SDKESNAYGFIEWCSRC [YJL039C/NUP192] | 2.98 ± 0.066 | 2.79 ± 0.067 | 2.97 ± 0.053 | 2.73 ± 0.063 |
| SDKQRRLLAKDAMIAQR [DIS3] | 2.29 ± 0.056 | 2.48 ± 0.049 | 2.36 ± 0.064 | 2.46 ± 0.049 |
| SDLLVAPPLENENSNCL [YML103C/NUP188] | 3 ± 0.095 | 3.28 ± 0.1 | 3.25 ± 0.14 | 3.18 ± 0.11 |
| SDNISRKYEISFGKIYV [RPB2] | 2.79 ± 0.059 | 3.32 ± 0.073 | 2.78 ± 0.068 | 2.72 ± 0.072 |
| SDNSEEEEVDIDMDKLN [RRP43] | 3.25 ± 0.069 | 3.25 ± 0.071 | 3.4 ± 0.077 | 3.11 ± 0.05 |
| SDNVYLKLLVKLYTFLA [RPL18A] | 2.12 ± 0.098 | 1.99 ± 0.099 | 1.67 ± 0.084 | 2.43 ± 0.084 |
| SDPESERPAIEFETPTF [RPN14] | 3.13 ± 0.054 | 3.11 ± 0.055 | 3.02 ± 0.047 | 3.15 ± 0.053 |
| SDRSLSEDLFADGLLQV [BRR2] | 3.04 ± 0.28 | – | – | – |
| SDSNANAAVAGVANTDT [SWI3] | 3.28 ± 0.063 | 3.33 ± 0.07 | 3.22 ± 0.044 | 2.91 ± 0.061 |
| SDSSKPAFSFGTKSNEK [YJL041W/NSP1] | 2.97 ± 0.073 | 2.19 ± 0.058 | 2.79 ± 0.076 | 2.75 ± 0.041 |
| SDTLKEFKIEQNNEQNP [YDL116W/NUP84] | 2.79 ± 0.23 | 3.01 ± 0.15 | 2.8 ± 0.1 | 3.3 ± 0.22 |
| SDVSDFEGWGHEYIRHL [RPN1] | 3.07 ± 0.15 | 3.09 ± 0.14 | 3.17 ± 0.14 | 3.37 ± 0.15 |
| SEDHSFRKIKLRVDEVQ [RPS1A] | 3.1 ± 0.12 | 3.16 ± 0.11 | 3.1 ± 0.071 | 3.22 ± 0.071 |
| SEDHSFRKVKLRVDEVQ [RPS1B] | 3.05 ± 0.094 | 2.96 ± 0.15 | 2.66 ± 0.091 | 3.1 ± 0.067 |
| SEEINQYVTQIEQEKQE [PRE6] | 2.68 ± 0.075 | 1.76 ± 0.063 | 2.59 ± 0.085 | 2.62 ± 0.086 |
| SEEVDDLSMVPKMKDEE [SNF2] | 2.78 ± 0.17 | – | 3.29 ± 0.12 | 3.59 ± 0.22 |
| SEFANQNQGGAQAPFDI [ROX3] | – | – | 3.28 ± 0.22 | 3.48 ± 0.094 |
| SEKNKRQSKSSGKSNTS [ITC1] | 3.06 ± 0.094 | 3.31 ± 0.071 | 2.98 ± 0.073 | 3.16 ± 0.1 |
| SENAPSASSKEFNFTNL [YAR002W/NUP60] | 2.83 ± 0.052 | 2.94 ± 0.062 | 2.88 ± 0.051 | 2.99 ± 0.056 |
